Experiments:
D. vulgaris biofilm = assay: Biofilm formation assay, crystal violet staining, 96-well plates; format: cell-based, Desulfovibrio vulgaris Hildenborough
Description: (§1) D. vulgaris, D. desulfuricans and plasmid-transformed strains of both of these bacteria were grown anaerobically in Modified Baar's medium (300 μL) in 96-well micro-titer plates (Fisher Scientific, cat no. 07-200-656) for 24 hours at 30° C. without shaking, after which time the planktonic cell turbidity in each well was measured spectrophotometrically at 620 nm using a Sunrise™ microplate reader (TECAN, Switzerland). The plates were then incubated under the same conditions for an additional 24 to 48 hours, after which biofilm formation was measured by crystal violet staining. For biofilm dispersal assays, 24 hours after seeding the plates for biofilm growth, arabinose (10 mM) was added to strains harboring plasmids allowing arabinose-based induction of DVU2956 (SEQ ID NO:2). The arabinose-treated strains were then incubated anaerobically for another 24 hours without shaking, after which time biofilm formation was measured by crystal violet staining.
For crystal violet staining, the liquid portion of the cultures was discarded and the wells were washed by dipping the plates into 1 L of distilled water, after which the plates were dried with paper towel. Crystal violet (0.1%, 300 μL) was added to each well and the plates were incubated for 20 minutes at room temperature. After discarding the bulk of the staining solution, the wells were washed three times with distilled water as above to remove unbound crystal violet. The wells were then soaked for 5 minutes in 95% ethanol (300 μL) to dissolve the remaining (bound) crystal violet, which was then measured spectrophotometrically at 540 nm using the Sunrise™ microplate reader. Normalized biofilm formation percentage values were calculated based on the ratio of […] to compare the degree of biofilm formation or dispersal.

[1] = tested on: D. vulgaris biofilm cells; assay: Hydrogen sulfide production assay (methylene blue spectrophotometric); format: cell-based, Desulfovibrio vulgaris Hildenborough
Description: Hydrogen sulfide (H2S) by D. vulgaris strains was measured via a methylene blue spectrophotometric assay (Rabinowitz, 1978, Methods Enzymol. 53:275-277; incorporated herein by reference). Briefly, in this assay, N,N-dimethyl-p-phenylenediamine dihydrochloride is converted into methylthioninium chloride (methylene blue) by reacting with H2S dissolved in hydrochloride acid in the presence of ferric chloride. For a 96-well screening format, D. vulgaris was anaerobically grown in Modified Baar's medium in a 96-well plate (starting turbidity/OD of 0.05 at 600 nm, 150-μL culture volume) and incubated for 48 hours for biofilm formation. Anaerobically, 25 μL of each biofilm culture was transferred to another 96-well plate containing 225 μL deoxygenated water per well to render a 10-fold dilution of the transferred culture. Next, 5% N,N-dimethyl-p-phenylenediamine dihydrochloride (24.5 μL, prepared in 5.5 N HCl) (Sigma-Aldrich, cat. no. 536-46-9) was added to each well. After mixing the wells gently by pipetting and anaerobically incubating the mixes at room temperature for 3 minutes, the 96-well plate was removed from the anaerobic chamber and the absorbance at 670 nm of each well was measured using a Sunrise™ microplate reader.
For a more rigorous H2S assay, sealed glass vials were used to prevent H2S loss. D. vulgaris strains were grown anaerobically for 7 to 10 days in 10 mL of Modified Baar's medium with 2.5 g of sterilized glass wool to promote biofilm formation. Supernatants from these cultures were transferred by syringe to another sealed vial for dilution with 10 mL of PBS buffer. Anaerobically, 1 mL of diluted sample was then transferred by syringe to another sealed bottle with 125 μL of 12% sodium hydroxide and 3.25 mL of 1% zinc acetate (to fix the sulfide from H2S by forming ZnS precipitates). […] Water (2.125 mL) was added and mixed, and then at least 1 mL of each reaction was removed to determine absorbance at 670 nm.

[2] = tested on: established D. vulgaris biofilms; assay: Biofilm dispersal assay, arabinose induction, crystal violet staining; format: cell-based, Desulfovibrio vulgaris Hildenborough; settings: after 24 hours; expression from inducible promoter PBAD on pMQ70; vs D. vulgaris/pMQ70
Description: as §1
(§2) For crystal violet staining, the liquid portion of the cultures was discarded and the wells were washed by dipping the plates into 1 L of distilled water, after which the plates were dried with paper towel. […] The wells were then soaked for 5 minutes in 95% ethanol (300 μL) to dissolve the remaining (bound) crystal violet, which was then measured spectrophotometrically at 540 nm using the Sunrise™ microplate reader. […]

[3] = tested on: Pdvu2956 (dvu2956 gene regulatory sequence); assay: Pdvu2956-mNeonGreen reporter fluorescence assay; format: cell-based, E. coli BL21(DE3); settings: ectopic expression induced by 1 mM IPTG for 90 minutes; E. coli/pMQ70-Pdvu2956-mNeonGreen/pET27b-dvu2956; excitation 425 nm, emission 517 nm
Source text: A D. vulgaris dvu2956 gene regulatory sequence (SEQ ID NO:12), which comprises (in 5′ to 3′ direction) predicted promoter (SEQ ID NO:13) and 5′-untranslated region (5′-UTR) sequences (SEQ ID NO:14), was linked upstream of a synthetic ribosome binding site (RBS, SEQ ID NO:15) and a codon-optimized nucleotide sequence (SEQ ID NO:16) encoding a monomeric yellow-green fluorescent protein (mNeonGreen™, GenBank® Accession No. KC295282). This nucleotide sequence (provided as SEQ ID NO:17) was constructed in E. coli TG1 to render plasmid construct pMQ70-Pdvu2956-mNeonGreen (8164 bp) and then transferred into D. vulgaris (wild type) and E. coli strain BL21(DE3), the latter of which was already transformed with plasmid pET27b-dvu2956 (pET27b-dvu2956 allows for IPTG-induced expression of ectopic DVU2956 [SEQ ID NO:2]). PCR analyses confirmed the presence of plasmids pMQ70-Pdvu2956-mNeonGreen (in both strains) and pET27b-dvu2956 (in E. coli). Additional D. vulgaris and E. coli strains that were transformed with plasmid pMQ70 were prepared, and served as negative controls in the fluorescence assays described below.
A similar analysis was conducted to test whether Pdvu2956 can heterologously drive gene expression in bacteria other than sulfate-reducing bacteria. […]

D. desulfuricans biofilm = assay: Biofilm formation assay, crystal violet staining, 96-well plates; format: cell-based, Desulfovibrio desulfuricans (DSM 12129); settings: at 24 hours; D. desulfuricans/pVLT33-Pdvu0304-dvu2956 vs D. desulfuricans/pVLT33-Pdvu0304
Description: as §1, §2

[4] = at 48 hours, biofilm-specific expression from pVLT33-Pdvu0304-based construct in D. vulgaris, vs wild type and D. vulgaris/pVLT33-Pdvu0304

B1: DVU2964: D. vulgaris Hildenborough protein, 219 aa, SEQ ID NO:10, expressed from pVLT33-Pdvu0304-dvu2964 (protein)
chain: MRENACVGCLTASASHELQNALAVIRESAGLMQDLIALGGENIPRRERIVELLSLIQQQVARGGELAGGLNTLGHAWEEDDGDLARILEEFVILAGRMGRMRSVTVGLAPGESGLRAPSAGLALRVLLFDLLQTCLEEAPGCALTFAPARRDGIPGIHLRVGLARCDATTDVLRRLDAQLARLGARKEPDNGHGTPARDEPDGVLYYFTACPSATGHRA
modifications: Desulfovibrio vulgaris Hildenborough
inhibition of biofilm formation (D. vulgaris biofilm; [4]): 45%

B2: DVU2960: D. vulgaris Hildenborough protein, 474 aa, SEQ ID NO:4, expressed from pVLT33-Pdvu0304-dvu2960 (protein)
chain: MKQASLPAGARIAGLVGRELALGPVFDAIPTGLAVLDADLRICLMNRALETMTGFTTAEVAGIPCRHVLRASVCLHRCPTRTAVCDATGGNAPCHAQEGDLLNRHRRRIPVRLTLAPLHDAQGQLCGWLHTAEDLSLVRELEERCSKGQASGPLVGRSVVMEELFRTVQALAQTETPVLITGETGTGKDAVAETIHKASPRGREPFVKASLSSLPDFLVESELFGHRKGAFPGAEEDKPGRFRMAQGGTLCLSELGDLPPAMQGRLVTFLDEGLVWPVGATDPVRCDVRLLVASNLDLEAMVASGRLREDLYSRLAAVRIHLPPLRERGEDLEFLLSHYLAHFAARLRKTIHGFSGKSLRVLLAYGFPGNVRELKNIVEYAATLCTGEVVMPSHLPAYLFHTRPAAAPPRAIERDTPKGAAEDEASARSSVVDLERRLIVDALARAGNRKGEAARILGWGRSTLWRKMKQFGLE
modifications: Desulfovibrio vulgaris Hildenborough
inhibition of biofilm formation (D. vulgaris biofilm; [4]): 95%

B3: DVU2956: D. vulgaris Hildenborough sigma 54-dependent enhancer-binding protein, 345 aa, SEQ ID NO:2, expressed in the bacteria from plasmids (protein)
chain: MSGKKLPHSGNSLPIEGTVSPQRETLQNGTDFLLLSGVMQRLRVLASQVASSDAPVLIHGETGTGKELFARLIHDMGIRAKKPFVAVNCGVHEGELFADKFFGHEQGAFTGAHRMSQGCFELASEGTLFLDEVGEIPGANQADFLRVLEEKRFRRIGGQRDIPFQARIVAASNRDLQEMVGQGQFRADLFYRLNVIPVVLPPLRARKEEVVPLARHFLTHYGDKYHRPGVRFAPETEQALAAYQWPGNVRELKNLVERIALLAPEGVLGPEHLPLELRSAAAVEVGVPHEVPEDLSLDRARREAEVRVILKAMRATGGNKGEAARLLGVSPRTLRYKFAEYALRF
modifications: Desulfovibrio vulgaris Hildenborough
decrease of H2S production ([1]; 96-well culture, D. vulgaris/pVLT33-Pdvu0304-dvu2956 vs D. vulgaris/pVLT33-Pdvu0304): 51±2%
decrease of H2S production ([1]; D. vulgaris (dvu2956-)/pMQ70-Pdvu2956-dvu2956 vs D. vulgaris (dvu2956-)/pMQ70-Pdvu2956): 45±13%
inhibition of H2S production ([1]; sealed vials, biofilm-specific expression): 34.6±0.6%
dispersal of established biofilms [2]: 42±4%
inhibition of biofilm formation (D. vulgaris biofilm; at 24 hours, D. vulgaris (dvu2956-) complemented with pMQ70-Pdvu2956-dvu2956, vs D. vulgaris (dvu2956-)/pMQ70-Pdvu2956): 48±11%
higher fluorescence signal vs negative control [3]: ~14 fold
inhibition of biofilm formation (D. desulfuricans biofilm): 78±9%

B4: DVU2962: D. vulgaris Hildenborough protein, 577 aa, SEQ ID NO:8, expressed from pVLT33-Pdvu0304-dvu2962 (protein)
chain: MKNPLGTMLSRLRSVFDVPDEIAPERYRMLRRKITLLMTAVSVLPLLILTAVSYHQYQSTLTREIVTPVRALVNKTRHSFELFLAERSSTVSLLAKTYSMAELSDEKNLNRIFLALKGEFPGFVDLGVIDGRGVQVGYVGPYDVRGKNYSEADWYNRTRVKGVYISDVFMGFRRFPHIAIAVQRMNPDGSSWMLRATIETTQFDRLIASMGLDPESDAFLINTAGVLQTNSRFYGNVLDVMPMPVPHLSYEPSIIDTEDPEGRQIFLSSAFLQNADFAIVAVKPKTEILRPWTSLRSDLLIFVAFSVALIISAAFGFTDMLVRRMRDSDERRIAAFVQIEHTQKLSSIGRLAAGVAHEINNPLAIINEKAGLAADLIALSQDFPQKERFSAIVEAISRSVDRCRSITHRLLGFSRRMDATYEQLDVNGILKETMSFLEQEAVHRSITIGTSLDAGLPRITSDRGQLQQVFLNIINNAFAAVQDGGSVTLTTFAADGGMVGVSIQDNGKGMSEEVQRHIFEPFFTTKKTAGTGLGMFITYGIIKRLGGEIGINSREGVGTTVTVYLPQDAPAPQSLEN
modifications: Desulfovibrio vulgaris Hildenborough
inhibition of biofilm formation (D. vulgaris biofilm; [4]): 90%

Reference: patent US12173292B2, “Controlling bacterial biofilms” (LANXESS Corporation, priority 2019, dated 2024)
